Test results reported in patent US12065466B2, “Methods and compositions for protein sequencing” (Quantum-Si Incorporated, priority 2020, dated 2024).

Tested on: amino acid at a terminal position of a polypeptide
Assay: Amino acid binding preference of recognition proteins (Tables 1 and 2)
Settings: Table 1, ClpS proteins; amino acid identity at a terminal position of a polypeptide; inferred from literature and/or demonstrated by the inventors
From the text: It should be appreciated that these sequences and other examples described herein are meant to be non-limiting, and recognition molecules in accordance with the application can include any homologs, variants thereof, or fragments thereof minimally containing domains or subdomains responsible for peptide recognition.

Row | Molecule | Binding Pref.
1 | PS430: ClpS protein, SEQ ID NO: 53 (protein) MQPFEETYTDVLDEVVDTDVHNLVVFNDDVNTFDHVIETLIDVCKHTPEQAEQCTLLIHYKGKCSVKNGSWEELVPMRNEICRRGISAEVLK | F, Y, W, L
2 | PS432: ClpS protein, SEQ ID NO: 55 (protein) MIGVEARTSSAPELAIETEIRLAGLWHVIVINDPVNLMSYVVMVLRKIFGFDDTKARKHMLEVHENGRSIVWSGEREPAEAYANTLHQWHLSAVLERDETD | F, W
3 | PS433: ClpS protein, SEQ ID NO: 56 (protein) MMSSLKECSIQALPSLDEKTKTEEDLSVPWKVIVLNDPVNLMSYVVMVFRKVFGYNENKATKHMMEVHQLGKSVLWTGQREEAECYAYQLQRWRLQTILEKDD | F, Y, W, L
4 | PS434: ClpS protein, SEQ ID NO: 57 (protein) MSRLPWKQEAKFAATVIIDFPDATLEAPTIEKKEATEQQIEMPWNVVVHNDPVNLMSYVTMVFQRVFGYPRERAEKHMLEVHHSGRSILWSGLRERAELYVQQLHGYLLLATIEKTV | F, Y, W, L
5 | PS435: ClpS protein, SEQ ID NO: 58 (protein) MTLSVALGPDTQESTQTGTAVSTDTLTAPDIPWNLVIWNDPVNLMSYVSYVFQSYFGYSETKANKLMMEVHKKGRSIVAHGSKEQVEQHAVAMHGYGLWATVEKATGGNSGGGKSGGPGKGKGKRG | F, Y, W, L
6 | PS545: PS372-homologous ClpS protein, SEQ ID NO: 59 (protein, listed as Planctomycetales bacterium) MSEPMTLPAIPQPRLKERTQRQPPYNVILLNDDDHSYEYVIAMLQVLFGYPREKGYQMAKEVDSTGRVILLTTTREHAELKQEQIHAFGPDPLMARCQGSMTAVIEPAV | I, L, V
7 | PS546: PS372-homologous ClpS protein, SEQ ID NO: 60 (protein, listed as Planctomycetales bacterium) MSDTITLPGRPEVERDERTRRQPPYNVILHNDDDHTFEYVIVMLNQLFGYPPEKGYEMAKEVHLNGRVIVLTTSKEHAELKRDQIHAFGPDPFSSKDCKGSMSASIEPAY | I, L, V
8 | PS547: PS372-homologous ClpS protein, SEQ ID NO: 61 (protein, listed as Gemmataceae bacterium) MGFPTDFRQSIEISTPLGSQQPRFSNASSEPALADPVLVINPRIQPRYHVILLNDDDHTYRYVIEMMLIVFGHPPEKGFLIAKEVDKAGRAICLTTSLEHAEFKQEQVHAYGADPYFGPKCKGSMTAVLEPAE | I, L, V
9 | PS548: PS372-homologous ClpS protein, SEQ ID NO: 62 (protein, listed as Gemmataceae bacterium) MSDTITLPEEKTDVRTKRQPPYHVILLNDDDHTYQYVIYMLQTLFGHPPETGFKMAQEVDKTGRVIVDTTSLERAELKRDQIHAFGPDPYIERCKGSMSAMIEPSE | I, L, V
10 | PS549: PS372-homologous ClpS protein, SEQ ID NO: 63 (protein, listed as Planctomycetes bacterium) MSESITTLPKKSRRLKEEEEQKTKRQPPYNVILLNDDDHTFEYVIFMLQKLFGHPPERGMQMAKEVHTTGRVIVMTTALELAELKRDQIHAFGPDPLIDRCKGSMSATIEPAPI | I, L, V
11 | PS550: PS372-homologous ClpS protein, SEQ ID NO: 64 (protein, listed as Planctomycetes bacterium) MPTFTEPEVVNDTRILPPYHVILLNDDDHTYEYVIHMLQTLFGHPQERGFQLAVEVDKKGKAIVFTTSKEHAEFKRDQIHAFGADPLSSKNCKGSMSAVIEPSF | I, L, V
12 | PS551: PS372-homologous ClpS protein, SEQ ID NO: 65 (protein, listed as Rubrobacter indicoceani) MPSAAPAKPKTKRQSRTQGMPPYNVVLLDDDDHTYGYVIEMLNKVFGHPPEKGFELATEVDKNGRVIVMTTNLEVAELKRDEVHAFGPDPLMPRSKGSMSAVVERAG | I, L, V
13 | PS552: PS372-homologous ClpS protein, SEQ ID NO: 66 (protein, Fimbriiglobus ruber) MSKTSTLPEVESESAQKLKYQPPYHVILLNDDDHSYVYVITMLKELFGHPEQKGYQLADAVDKQGRAIVFTTTREHAELKQEQIHAYGPDPTIPRCKGAMTAVIEPAE | I, L, V
14 | PS553: PS372-homologous ClpS protein, SEQ ID NO: 67 (protein, listed as Planctomycetes bacterium) MPASASAVTEPPVSLPEAAAPRPKDRPKRQPRYHVILWNDDDHTYQYVVAMLRQLFGHPPEKGFTLAKQVDKDGRVVVLTTTKEHAELKRDQIHAFGADRLLARSKGSMSASIEPEASTG | I, L, V
15 | PS554: PS372-homologous ClpS protein, SEQ ID NO: 68 (protein, listed as Planctomycetes bacterium) MSDSASATVEVQADPPADATARSQPTPARSTGSKPKRQPRYHVVLWNDDDHTYEYVIAMLRRLFGIEPEKGFRIAEEVDQSGRAVVLTTTREHAELKRDQIHAFGADRLLARSKGSMSASIEPEA | I, L, V
16 | PS555: PS372-homologous ClpS protein, SEQ ID NO: 69 (protein, Planctomycetes bacterium RBG_16_64_12) MADSAQTGVAEPIQETLRRRKLRDDRRPKRQPPYHVILWNDNDHTYAYVVVMLMQLFGYPAEKGYQLASEVDTQGRAVVLTTTKEHAELKRDQIHAYGKDGLIEKCKGSMWATIEPAPGE | I, L, V
17 | PS556: PS372-homologous ClpS protein, SEQ ID NO: 70 (protein, listed as Blastopirellula marina) MGDSNTSVAEPGEVTVVTTKPAPKKAKPKRQPKYHVVLWNDDDHTYEYVILMMHELFGHPVEKGFQIAKTVDADGRAICLTTTKEHAELKRDQIHAYGKDELIARCRGSMSSTIEPEC | I, L, V
18 | PS558: PS372-homologous ClpS protein, SEQ ID NO: 72 (protein, listed as Planctomycetes bacterium) MTATTADPDRTTAEKTTKKARRSGQPKRQPRYHVILWNDNDHTYQYVVAMLQQLFGHPATTGLKLATEVDRTGRAVILTTTREHAELKRDQIHAFGADRLLARSKGAMSASIEPEAE | I, L, V
19 | PS559: PS372-homologous ClpS protein, SEQ ID NO: 73 (protein, listed as Planctomycetaceae bacterium) MNQAAISPNPDIKPNPSTHKKRASQRQPRYHVILWNDNDHTYHYVVTMLQKLFGHPPRTGIKMATEVDKKGKVIVLTTSREHAELKRDQIHAFGADKLIRRSKGAMAASIEPES | I, L, V
20 | PS560: PS372-homologous ClpS protein, SEQ ID NO: 74 (protein, listed as Planctomycetes bacterium) MTETITTPAERTQTQAEPRSDRAWLWNVVLLDDDEHTYEYVIRMLHTLFGMPVERAFRLAEEVDARGRAVVLTTHKEHAELKRDQVHAFGKDALIASCAGSMSAVLEPAECGSDDED | I, L, V
